Results: patent US20150239980A1 (NEOTOPE BOSCIENCES, published 2015)
Residue numbers refer to the chain shown, from its start. Blank lines part the entries; values can stand above or below the binder they belong to.

Columns and labels:
recombinant hMCAM-His [1] = target: T1, recombinant hMCAM-His (human, UniProt P43121 24-559); assay: ForteBio Octet Red, hMCAM-His analyte; Forte column 1; vs rodent 1749
T1 construct: not shown: His tag
T1 chain: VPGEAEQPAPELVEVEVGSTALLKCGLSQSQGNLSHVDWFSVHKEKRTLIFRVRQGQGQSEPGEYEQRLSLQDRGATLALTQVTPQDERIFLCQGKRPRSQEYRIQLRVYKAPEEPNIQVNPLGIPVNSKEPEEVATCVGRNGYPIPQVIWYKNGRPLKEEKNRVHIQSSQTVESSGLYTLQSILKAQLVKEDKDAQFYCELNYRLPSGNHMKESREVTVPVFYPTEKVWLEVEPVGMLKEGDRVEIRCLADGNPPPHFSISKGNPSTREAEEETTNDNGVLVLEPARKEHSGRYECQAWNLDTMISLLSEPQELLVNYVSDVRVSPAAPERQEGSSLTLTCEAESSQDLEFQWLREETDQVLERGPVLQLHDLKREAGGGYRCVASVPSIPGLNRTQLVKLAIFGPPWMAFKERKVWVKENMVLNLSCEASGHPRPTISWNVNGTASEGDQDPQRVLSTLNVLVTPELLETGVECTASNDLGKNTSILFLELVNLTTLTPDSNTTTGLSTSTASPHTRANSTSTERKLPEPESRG
Protocol: (§1) The affinities were measured using the ForteBio Octet Red. Anti-human Fc sensors were used to capture the humanized antibodies, and several concentrations of hMCAMHis analyte were used to determine the affinity using a 1:1 fitting model.

recombinant hMCAM-His [2] = target: T1, recombinant hMCAM-His; assay: competitive ELISA on hMCAM-His, competitor biotinylated rodent or chimeric 1749; vs rodent 1749
recombinant hMCAM-His [3] = target: T1, recombinant hMCAM-His; assay: summary of ForteBio and competitive ELISA on hMCAM-His; vs rodent 1749
Protocol: (§2) ELISA plates were coated with recombinant hMCAM-His, and blocked with casein buffer to prevent non-specific binding. Biotinylated rodent or chimeric antibody was added at a subsaturating concentration, in the presence or absence of 3× increasing concentrations of unlabeled competitor (humanized antibody, rodent, or chimeric). After washing to remove unbound antibody, streptavidin HRP was added to allow detection of the biotinylated antibody. The ELISA was developed with TMB substrate and the OD450 was measured. The IC50 of the unlabeled competitor was determined using the GraphPad Prism5 software.
as §1

[4] = target: T2, human MCAM (melanoma cell adhesion molecule) expressed on transfected CHO cells (human, UniProt P43121 24-646); assay: summary of laminin blocking assay on hMCAM CHO cells, competitor laminin 411; vs rodent 1749
T2 construct: also called hMCAM; CD146
T2 chain: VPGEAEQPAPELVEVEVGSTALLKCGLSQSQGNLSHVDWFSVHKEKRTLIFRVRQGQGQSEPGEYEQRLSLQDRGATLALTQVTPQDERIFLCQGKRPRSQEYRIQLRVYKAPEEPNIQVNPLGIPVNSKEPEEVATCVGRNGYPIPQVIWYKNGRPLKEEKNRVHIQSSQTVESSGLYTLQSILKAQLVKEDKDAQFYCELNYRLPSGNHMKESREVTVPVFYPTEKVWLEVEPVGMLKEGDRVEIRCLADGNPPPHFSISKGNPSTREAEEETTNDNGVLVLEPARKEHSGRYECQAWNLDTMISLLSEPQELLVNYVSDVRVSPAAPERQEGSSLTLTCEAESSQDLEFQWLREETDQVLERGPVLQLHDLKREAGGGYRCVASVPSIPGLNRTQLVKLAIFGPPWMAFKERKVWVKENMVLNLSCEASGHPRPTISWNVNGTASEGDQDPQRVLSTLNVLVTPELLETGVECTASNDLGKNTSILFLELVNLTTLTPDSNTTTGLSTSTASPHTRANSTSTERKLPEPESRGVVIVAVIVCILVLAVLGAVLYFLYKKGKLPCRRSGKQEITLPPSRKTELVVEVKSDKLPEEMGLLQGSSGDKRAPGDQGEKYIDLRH
Protocol: (§3) Following incubation for 30-45 minutes, the cells were washed and anti-laminin conjugated to AF650 (NovusBio) was added to detect the bound laminin. The cells were run on a flow cytometer to measure the laminin binding signal.

[5] = target: T2, human MCAM (melanoma cell adhesion …); assay: laminin/FACS on hMCAM CHO cells, competitor laminin 411; Expt#1; vs rodent 1749
Protocol: as §3

[6] = target: T2, human MCAM (melanoma cell adhesion …); assay: laminin/FACS on hMCAM CHO cells, competitor laminin 411; Expt#2; vs rodent 1749
Protocol: as §3

recombinant hMCAM-His [7] = target: T1, recombinant hMCAM-His; assay: competitive ELISA on hMCAM-His, competitor biotinylated rodent or chimeric 2107; Expt. #1; vs rodent 2107
Protocol: as §2

recombinant hMCAM-His [8] = target: T1, recombinant hMCAM-His; assay: ForteBio Octet Red, hMCAM-His analyte; Expt. #1; vs rodent 2107
Protocol: as §1

[9] = target: T2, human MCAM (melanoma cell adhesion …); assay: flow cytometry, human MCAM CHO cells preincubated with antibody, competitor recombinant human laminin 411 at 20 ug/ml
Protocol: The 87 independent mouse fusion clones and 26 independent rat fusion clones described in Example 10 above as being capable of (i) binding to human MCAM, and (ii) blocking the interaction between human MCAM and the α-4 chain of laminin were further characterized as follows. First, IC50 quantitation for the ability of the monoclonal antibody to block the binding of human MCAM to the α-4 chain of laminin was determined as follows. CHO cells expressing human MCAM were incubated with an anti-human MCAM antibody (at various concentrations) for 30 minutes at 4 degrees Celsius. […] Unbound laminin was then washed away, and the laminin bound to the surface of the cells was detected with fluorescently labeled anti-laminin antibodies. After washing, the amount of laminin bound to the surface was detected by flow cytometry, and IC50s were calculated based on the mean fluorescent intensity.
These six anti-MCAM monoclonal antibody clones are herein referred to as (i) the mouse anti-human MCAM monoclonal clones 1174.1.3, 1414.1.2, 1415.1.1, and 1749.1.3, and (ii) the rat anti-human MCAM monoclonal antibody clones 2120.4.19 and 2107.4.10. […] As such, each of these specific monoclonal antibodies was very capable of binding to human MCAM and inhibiting the interaction of cell-expressed human MCAM with its α-4 laminin binding ligand.

[10] = target: T3, human MCAM domain 2 (amino acids 139-242), Fc-tagged (human, UniProt P43121 139-242); assay: ForteBio domain mapping as in Example 8
T3 sequence: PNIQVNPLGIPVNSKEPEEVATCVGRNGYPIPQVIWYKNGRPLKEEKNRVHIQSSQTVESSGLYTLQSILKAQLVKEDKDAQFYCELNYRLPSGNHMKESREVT

[11] = target: T4, human MCAM domain 1 (amino acids 19-129), Fc-tagged (human, UniProt P43121 19-129); assay: ForteBio domain mapping as in Example 8
T4 construct: also called MCAM Fc domain 1
T4 sequence: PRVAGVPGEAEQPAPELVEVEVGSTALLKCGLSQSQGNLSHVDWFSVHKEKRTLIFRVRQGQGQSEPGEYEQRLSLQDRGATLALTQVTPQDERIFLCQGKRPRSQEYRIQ

[12] = target: T5, human MCAM domain 3 (amino acids 244-321), Fc-tagged (human, UniProt P43121 244-321); assay: ForteBio domain mapping as in Example 8
T5 construct: also called domain 3 of the human MCAM protein
T5 sequence: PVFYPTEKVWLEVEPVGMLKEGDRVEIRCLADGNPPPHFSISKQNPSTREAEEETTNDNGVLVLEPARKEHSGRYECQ

[13] = target: T6, Recombinant human Fc-tagged MCAM IgG1-2A (human MCAM domains 1 and 2, amino acids 19-242) (human, UniProt P43121 19-242); assay: ForteBio domain mapping as in Example 8
T6 construct: also called human MCAM IgG1-2A; MCAM Fc domains 1 and 2; not shown: human Fc tag
T6 sequence: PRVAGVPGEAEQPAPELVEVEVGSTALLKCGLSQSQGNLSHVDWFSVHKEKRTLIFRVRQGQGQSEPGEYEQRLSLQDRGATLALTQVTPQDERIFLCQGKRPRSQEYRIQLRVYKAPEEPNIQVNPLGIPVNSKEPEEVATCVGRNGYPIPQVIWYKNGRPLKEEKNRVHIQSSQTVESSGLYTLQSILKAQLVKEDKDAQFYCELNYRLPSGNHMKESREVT

B1: h1749VH1 + h1749VL2 (antibody, human IgG1, V domains shown)
VH: EVQLVESGGGLVQPGGSLRLSCAASGFTFSSYIMSWVRQAPGKGLEWVATISSGGSSTYYPDSVKGRFTISRDNAKNSLYLQMNSLRAEDTAVYYCTRDDDYDVKVFAYWGQGTMVTVSS
VL: DIVMTQSPDSLAVSLGERATINCKSSRSLLNSRIRKNYLAWYQQKPGQPPKLLIYWASTRESGVPDRFTGSGSGTDFTLTISSLQAEDVAVYYCKQSYNLLTFGQGTKVEIK
fold over rodent (Forte affinity) (recombinant hMCAM-His [1]): 2.5 fold
fold over rodent (competitive ELISA) (recombinant hMCAM-His [2]): 1 fold
fold reduction in affinity compared to the rodent (recombinant hMCAM-His [3]): < 2 fold
fold reduction in potency compared to the rodent [4]: < 2 fold
fold over rodent (blocking, laminin/FACS) [5]: 1.1 fold
fold over rodent (blocking, laminin/FACS) [6]: 1.2 fold

B2: h1749VH2 + h1749VL1 (antibody, human IgG1, V domains shown)
VH: B1 VH with G44R
VL: B1 VL with T69S
notes: also called h1749VH2VL1
fold over rodent (Forte affinity) (recombinant hMCAM-His [1]): 1.2 fold
fold over rodent (competitive ELISA) (recombinant hMCAM-His [2]): 1 fold
fold reduction in affinity compared to the rodent (recombinant hMCAM-His [3]): < 2 fold
fold reduction in potency compared to the rodent [4]: < 2 fold
fold over rodent (blocking, laminin/FACS) [5]: 1.5 fold
fold over rodent (blocking, laminin/FACS) [6]: 1.8 fold

B3: h2107_VH4 + h2107_VL2 (antibody, human IgG1, V domains shown)
VH: QVTLKESGPVLVKPTETLTLTCTVSGFSLTSSGVSWVRQPPGKALEWIAAISSGGSTYYNSAFKSRLTISPDTSKSQVVLTMTNMDPVDTATYYCARHRPFYFDYWGQGTLVTVSS
VL: DIQMTQSPSSLSASVGDRVTITCKGSQNIYKSLAWFQLKPGKVPKLLIYDANSLQTGIPSRFSGSGSGTDFTLTISSLQPEDVATYYCQQYYSGYTFGGGTKVEIK
fold over rodent (competitive ELISA) (recombinant hMCAM-His [7]): 11.7 fold
fold over rodent (Forte affinity) (recombinant hMCAM-His [8]): 5.59 fold

B4: mouse anti-human MCAM monoclonal antibody clone 1174.1.3 (antibody, V domains shown)
VH: QIQLVQSGPELKKPGETVKISCKASGYTFTNYGMNWVKQAPGKGLKWMGWINTYTGEPTYADDFKGRFALSLETSASTAYLQINNLKNEDMATYFCARYRYNKYERAMDYWGQGTSVTVSS
VL: DIVLTQSPASLAVSLGQRATISCRASKSVSTSGYSYMYWYQQKPGQPPKLLIYLASNLESGVPARFSGSGSGTDFTLNIHPVEEEDAATYYCQHSRELPFTFGSGTKLEIK
notes: mouse hybridoma antibody
IC50 [9]: 0.469 µg/mL
binding result [10]: no binding
binding result [11]: no binding
binding result [12]: binds
binding result [13]: no binding

Continued, values first:

IC50 [9]: 0.431 µg/mL
binding result [10]: no binding
binding result [11]: no binding
binding result [12]: binds
binding result [13]: no binding
B5: mouse anti-human MCAM monoclonal antibody clone 1414.1.2 (antibody, V domains shown)
VH: EIQLQQTGPELVKPGASVKISCKASGYSFTDYIMLWVKQSHGKSLEWIGNINPYSGSSGYNLKFKGKATLTVDKSSSTAYMQLNSLTSEDSAVYYCARGKDFAMDYWGQGTSVTVSS
VL: DIVMSQSPSSLAVSAGEKVTMSCKSSQSLLNSSTRKNFLAWYQQKPGQSPKLLIYWASTRESGVPDRFTGSGSGTDFTLTISSVQAEDLAVYYCKQSYNRYTFGGGTKLEIK
notes: mouse hybridoma antibody

IC50 [9]: 0.307 µg/mL
binding result [10]: no binding
binding result [11]: no binding
binding result [12]: binds
binding result [13]: no binding
B6: mouse anti-human MCAM monoclonal antibody clone 1415.1.1 (antibody, V domains shown)
VH: QVQLQQPGAELVQPGAPVKLSCKASGYIFTSYWMNWVKQRPGRGLEWIGRIDPSDSKIHYNQKFKDKATLTVDRSSSTAYIQLGSLTSEDSAVYYCAKEGGLRRGDYAMDYWGQGTSVTVSS
VL: DIVMTQSPATLSVTPGDRVSLSCRASQSISDYLHWYQQKSHESPRLLIKYASQSISGIPSRFSGSGSGSDFTLSINSVEPEDVGVYYCQNGHNFPRTFGGGTKLEIK
notes: mouse hybridoma antibody
